Key:
[1] = target: SARS-CoV-2 Spike (); assay: BLI
[2] = target: SARS-CoV-2 Spike RBD (tagless) (UniProt P0DTC2 319-541); assay: BLI

B1: 22-E7 (full-length human IgG1) (antibody, V domains shown)
VH: QVQLVESGGGVVQPGTSLRLSCAASGFTFNNYPMFWVRQAPGKGLEWLALISYDGNHKVYADSVKGRFTISRDNAKNTLYLQMHSLRAEDTALYYCASDLSGAEDSWGQGTLVTVSS
VL: QSALTQPASVSGSPGQSITISCTGTSSDVGGYNYVSWYQQHPGKAPKLLIYEVSNRPSGVSNRFSGSKSGNTASLTISGLQAEDEADYYCSSYTSSSTWVFGGGTKLTVL
Question: For B1, which Kd [1] is on record?
Answer: 248 nM

B2: 23-H7 Fab (Fab, V domains shown)
VH: QVQLVQSGAEVKLPGASMKVSCKASGYTFSTYYMHWVRQAPGQGPEWMGVIDPSGGTTSYAQKFHDRIAMTRDTSTSTAYLELSSLRSEDMAVYYCARGGFADAVDYWGQGTLVTVSS
VL: NFMLTQPHSVSGSPGKTVTISCTRNSGSIAGNYVQWYQQRPGSAPTTVIYEDNQRPSGVPDRFSGSIDSSSNSASLTISGLKTEDEADYYCQSYDASHLHVIFGGGTKVTVL
Question: B2 was tested. Which IC50 [2] did it give?
Answer: 4.6 nM

Reference: patent US20220251174A1 (published 2022)
